Source: the RNAGym collection of RNA variant scans (doi:10.7554/elife.90254)

B1: OR4K15 (parent)
chain: GUUAACGGUCAUAGGCCAUGGAAACUAGGAGCACCAUUUCGCUGCCAGUGAAGAAAUGAACAAAGAAAAUCUGGGCCAGGCAGGCAUCAAAAGAAAUAGUCUUGCGCUCAACCAGAAAGUCUGUAAUCAUUUUAAGGGUA

Variants of: B1
Assay: self-cleavage, relative activity (ratio to wild type); higher = more cleavage; in vitro, sequencing; the parent is a self-cleaving ribozyme
A69G A134G showed a self-cleavage of 1.17.
Variant U72A A78U has a self-cleavage of 0.15.
With U70A A94G the self-cleavage was 0.72.
For U72A C76U, the self-cleavage was 0.28.
For U72A A94U, the self-cleavage was 0.37.
A69G C85U gave a self-cleavage of 0.65.
Work on A69G U87A yielded a self-cleavage of 1.29.
Work on A69G U87C yielded a self-cleavage of 1.66.
In the case of U70C U133C, the self-cleavage is reported as 0.98.
In the case of A69U A111G, the self-cleavage is reported as 0.04.
For U70C U87G, the self-cleavage was 0.04.
Work on A69G G80A yielded a self-cleavage of 0.12.
A69G U132A showed a self-cleavage of 0.69.
A69G U133C gave a self-cleavage of 1.33.
For A69U G137U, the self-cleavage was 2.12.
Work on A69U G137A yielded a self-cleavage of 2.13.
With U70C A82U the self-cleavage was 0.37.
U70C G83A showed a self-cleavage of 1.57.
U70A A110G gave a self-cleavage of 0.1.
With U70A A110U the self-cleavage was 0.18.
U72A A140G showed a self-cleavage of 0.32.
In the case of A69G U124A, the self-cleavage is reported as 0.53.
U70C C109A gave a self-cleavage of 0.16.
A69G C101U showed a self-cleavage of 0.26.
A69U A90G showed a self-cleavage of 1.31.
A69G U100C showed a self-cleavage of 2.43.
U70C U108A gave a self-cleavage of 0.03.
In the case of U70C U108C, the self-cleavage is reported as 0.02.
With A69G C107U the self-cleavage was 0.03.
In the case of U70G A118G, the self-cleavage is reported as 0.55.
Work on A69G U122G yielded a self-cleavage of 1.83.
A69U U72C showed a self-cleavage of 0.36.
In the case of C71A A78U, the self-cleavage is reported as 0.26.
A69G A95U showed a self-cleavage of 1.56.
In the case of U70C A110G, the self-cleavage is reported as 0.06.
Work on U70G A95G yielded a self-cleavage of 1.21.
U72A A114G showed a self-cleavage of 0.11.
A69G A126U gave a self-cleavage of 1.33.
With A69G A126G the self-cleavage was 0.55.
Variant U70C C128U has a self-cleavage of 0.31.
For A69G A111C, the self-cleavage was 0.02.
Variant U70A A116G has a self-cleavage of 0.59.
With U70A A118G the self-cleavage was 0.37.
With A69U A94G the self-cleavage was 2.42.
In the case of A69U U102C, the self-cleavage is reported as 2.2.
With U72A C101A the self-cleavage was 0.04.
U72A A82U gave a self-cleavage of 0.15.
Work on A69G U70A yielded a self-cleavage of 1.26.
With U70C G104A the self-cleavage was 0.03.
U70A U132C gave a self-cleavage of 0.6.
With U72A U100C the self-cleavage was 0.4.
U72A A91U showed a self-cleavage of 0.24.
Variant U72A A91G has a self-cleavage of 0.19.
With C71U U132C the self-cleavage was 0.25.
Variant U70A A90G has a self-cleavage of 1.12.
For A69G A116U, the self-cleavage was 0.12.
Work on A69G A116G yielded a self-cleavage of 0.56.
A69G G83A showed a self-cleavage of 2.11.
In the case of A69U A78C, the self-cleavage is reported as 0.31.
For C71A U132C, the self-cleavage was 0.58.
In the case of A69U G136A, the self-cleavage is reported as 2.69.
With A69U A126C the self-cleavage was 1.66.
For A69G G99U, the self-cleavage was 0.23.
A69G A94U gave a self-cleavage of 1.45.
A69G A94G gave a self-cleavage of 1.36.
C71U A95U gave a self-cleavage of 0.5.
Variant C71U A95G has a self-cleavage of 0.97.
U70C A117U gave a self-cleavage of 0.59.
Work on A69U A95G yielded a self-cleavage of 2.37.
Work on A69G U139A yielded a self-cleavage of 1.69.
A69G U131C gave a self-cleavage of 0.55.
U72A A117G showed a self-cleavage of 0.16.
For C71U U124C, the self-cleavage was 0.06.
In the case of A69U A92G, the self-cleavage is reported as 2.17.
U72A gave a self-cleavage of 0.18.
With C71U U130C the self-cleavage was 0.13.
Variant C71U U72A has a self-cleavage of 0.19.
For A69U A129U, the self-cleavage was 1.23.
U70C gave a self-cleavage of 0.47.
Work on U70G yielded a self-cleavage of 0.88.
In the case of U70A, the self-cleavage is reported as 0.83.
For A69U A96G, the self-cleavage was 2.35.
In the case of U70G U122A, the self-cleavage is reported as 1.34.
Work on U70A U139A yielded a self-cleavage of 0.23.
In the case of U72A A110C, the self-cleavage is reported as 0.06.
For A69G U127A, the self-cleavage was 1.8.
In the case of U70A U103A, the self-cleavage is reported as 0.67.
In the case of A69U U87G, the self-cleavage is reported as 0.74.
In the case of U70A A117G, the self-cleavage is reported as 0.03.
Variant U70C A118G has a self-cleavage of 0.35.
For A69G G106A, the self-cleavage was 0.02.
Work on U70C A91U yielded a self-cleavage of 1.07.
U72A A126U showed a self-cleavage of 0.37.
For U72A A126G, the self-cleavage was 0.16.
Work on U70C A94U yielded a self-cleavage of 0.2.
Work on U70C U72C yielded a self-cleavage of 0.31.
With U70C U72A the self-cleavage was 0.21.
Variant U72A A135G has a self-cleavage of 0.21.
For U72A A135U, the self-cleavage was 0.14.
Work on A69U A117G yielded a self-cleavage of 1.48.
U70C A78U showed a self-cleavage of 0.52.
With C71A U124C the self-cleavage was 0.22.
Variant U70A U72A has a self-cleavage of 0.24.
With U70A U72C the self-cleavage was 0.22.
For U70C A98U, the self-cleavage was 0.72.
Work on U70A A89U yielded a self-cleavage of 1.74.
Work on U70A A95G yielded a self-cleavage of 1.98.
With A69G A96C the self-cleavage was 1.58.
Work on A69G A96G yielded a self-cleavage of 1.52.
Variant U70G A94G has a self-cleavage of 1.61.
For A69U A134G, the self-cleavage was 1.82.
A69G A118G gave a self-cleavage of 0.98.
With U72A U87C the self-cleavage was 0.19.
In the case of U72A U87A, the self-cleavage is reported as 0.37.
With A69G A129G the self-cleavage was 0.87.
For A69G G123A, the self-cleavage was 1.43.
For C71U A135C, the self-cleavage was 0.42.
Work on C71G U87A yielded a self-cleavage of 0.21.
With U72A A92U the self-cleavage was 0.13.
In the case of U70C A129U, the self-cleavage is reported as 0.41.
For A69U U108C, the self-cleavage was 0.02.
U72A A90G showed a self-cleavage of 0.18.
U70C A95G showed a self-cleavage of 1.84.
A69G A92U gave a self-cleavage of 1.3.
Variant U70A A82U has a self-cleavage of 0.24.
Work on A69G A114C yielded a self-cleavage of 0.01.
Work on A69G A114U yielded a self-cleavage of 0.1.
With U70A U131C the self-cleavage was 0.7.
With U70C U130A the self-cleavage was 0.19.
U72A C128U gave a self-cleavage of 0.15.
Variant U70C U124C has a self-cleavage of 0.27.
Variant U70C U124A has a self-cleavage of 0.17.
In the case of U72A A86U, the self-cleavage is reported as 0.32.
Variant U72A A86G has a self-cleavage of 0.17.
Variant U70C A114C has a self-cleavage of 0.
In the case of U70C A114U, the self-cleavage is reported as 0.02.
C71A A98G gave a self-cleavage of 0.14.
U70C U102A showed a self-cleavage of 0.33.
In the case of A69G U108C, the self-cleavage is reported as 0.02.
Work on U72A C85U yielded a self-cleavage of 0.36.
C71U A126G gave a self-cleavage of 0.32.
Variant A69G U120C has a self-cleavage of 0.98.
A69G U120A showed a self-cleavage of 1.44.
Work on U72A A111U yielded a self-cleavage of 0.01.
In the case of U70A A78U, the self-cleavage is reported as 0.43.
U70A A78G showed a self-cleavage of 0.33.
Work on U72A G119A yielded a self-cleavage of 0.47.
Variant A69G A135G has a self-cleavage of 0.07.
Work on A69G A135U yielded a self-cleavage of 1.45.
Work on U70C A111G yielded a self-cleavage of 0.02.
In the case of U70C U127C, the self-cleavage is reported as 0.35.
With U70C A126U the self-cleavage was 0.71.
U70C A126G gave a self-cleavage of 0.96.
U70C U131C gave a self-cleavage of 0.65.
Variant U70C U97C has a self-cleavage of 0.68.
Work on A69U U103C yielded a self-cleavage of 0.51.
For U70C U100C, the self-cleavage was 2.
In the case of U70C U100A, the self-cleavage is reported as 0.18.
With U70A U127C the self-cleavage was 0.34.
U70C G75A showed a self-cleavage of 0.21.
With U70A C77U the self-cleavage was 2.04.
With U70A U122C the self-cleavage was 1.14.
A69G G75C gave a self-cleavage of 0.16.
U72A A98U showed a self-cleavage of 0.33.
A69G U72G showed a self-cleavage of 0.38.
In the case of U72A A95G, the self-cleavage is reported as 0.36.
Work on C71U A92G yielded a self-cleavage of 0.52.
